Experimental findings from patent publication US20230119290A1 (UNIVERSIT T ZU K LN, published 2023) are described below.

Experiment [1] concerns the target sFlt-1 (soluble splice variant of VEGF receptor 1) in human serum (human) (UniProt P17948). Briefly: cell-based or functional assay.
The target is the same in experiment [2]. The experiment is described as follows: adsorption of sFlt-1 from human serum on ligand column (agarose), sFlt-1 ELISA of flow through. (In general: An ELISA detects its analyte on a solid surface through an enzyme-linked reagent.)
Experiment [3] shares this target. The experiment is described as follows: adsorption of sFlt-1 from preeclampsia patient serum on agarose column, sFlt-1 ELISA before and after.
For experiment [4] the target is unchanged. The experiment is described as follows: single run of serum of 10 preeclampsia patients over scVEGF^165 column, sFlt-1 ELISA before and after.
The target of experiment [5] is T1, VEGF-Trap (chimeric protein of VEGFR-1 domain 2 and VEGFR-2 domain 3 fused to Fc) (UniProt P17948 129-230; P35968 225-327).
T1 construct: also called VEGFR1/R2 trap; not shown: Fc segment
Briefly: solid phase ELISA, VEGF/PIGF variant immobilised, VEGF-trap titrated 0.1 to 750 nM, Kd from saturation curve. The procedure:
ELISA style binding assays were performed as described previously (Agarwal et al., 2012). In brief, 10 µg/ml of recombinant VEGF, PIGF and their mutant variants were individually immobilized together with bovine serum albumin (BSA) on 96 well plate (Transparente Immuno Standardmodule, Thermo scientific, Denmark), while matrix loaded only with BSA served as a control. A binding saturation curve was generated by applying increasing concentrations of VEGFR1/R2 trap ranging from 0,1 to 750 nM, followed by detection of the ligand-receptor complex using a horseradish peroxidase (HRP)-conjugated antibody against the mouse Fc domain of VEGFR1/R2 trap. Luminescence was quantified at optical density (OD) 450 nm using a by spectrophotometer (Thermo ScientificMultiskan GO, Finland).

Sequence of sFlt-1 (soluble splice variant of VEGF receptor 1) in human serum (human) (P17948 other isoform, or with tags, fused parts or gaps mutant): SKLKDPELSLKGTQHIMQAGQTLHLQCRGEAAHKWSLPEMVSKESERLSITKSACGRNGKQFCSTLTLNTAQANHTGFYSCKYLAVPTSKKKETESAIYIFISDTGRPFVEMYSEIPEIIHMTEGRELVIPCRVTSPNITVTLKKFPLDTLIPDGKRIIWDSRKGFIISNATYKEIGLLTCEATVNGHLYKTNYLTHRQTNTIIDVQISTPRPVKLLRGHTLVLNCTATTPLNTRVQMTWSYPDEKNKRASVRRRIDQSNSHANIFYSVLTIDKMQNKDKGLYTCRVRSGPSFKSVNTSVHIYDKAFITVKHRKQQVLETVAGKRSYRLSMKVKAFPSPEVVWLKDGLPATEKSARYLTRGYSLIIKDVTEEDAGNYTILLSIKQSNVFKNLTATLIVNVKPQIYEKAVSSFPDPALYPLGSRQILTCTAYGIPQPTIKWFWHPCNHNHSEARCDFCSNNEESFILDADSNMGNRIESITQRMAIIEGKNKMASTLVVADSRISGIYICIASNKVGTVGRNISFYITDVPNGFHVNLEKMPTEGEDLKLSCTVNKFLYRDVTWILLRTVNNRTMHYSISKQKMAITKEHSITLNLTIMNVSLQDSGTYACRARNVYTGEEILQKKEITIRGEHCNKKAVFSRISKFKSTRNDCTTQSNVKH
T1 sequence (P17948 other isoform, or with tags, fused parts or gaps mutant): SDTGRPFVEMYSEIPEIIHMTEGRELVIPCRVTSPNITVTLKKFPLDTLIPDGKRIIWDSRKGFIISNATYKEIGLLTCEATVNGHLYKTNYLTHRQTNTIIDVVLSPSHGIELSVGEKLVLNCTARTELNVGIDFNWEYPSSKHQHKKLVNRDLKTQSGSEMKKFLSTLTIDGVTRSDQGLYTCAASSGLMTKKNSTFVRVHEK

For “single chain VEGF^165 dimer (scVEGF^165) (from UniProt P49151 27-190) (ligand)”, in experiment [1], the PIGF release (free PIGF in serum after against before the column) was 20 fold; the PIGF release (free PIGF in serum after against before the column), median was determined as 14.6 fold; the VEGF release (free VEGF in serum after against before the column) came to 9.07 fold; the VEGF release (free VEGF in serum after against before the column), median came out at 8.74 fold. In experiment [2], this molecule registered a reduction of sFlt-1 in a single run of 86.2%. The same molecule displayed a reduction of sFlt-1 in a single run in experiment [3] of 89.9%. In experiment [4], this molecule returned a sFlt-1 reduction (mean of 10 patient samples) of 88% and a sFlt-1 reduction (median of 10 patient samples) of 92.2%.

B1: monomeric PIGF (moPIGF) (ligand, UniProt P49763-2 19-149, looked up, not shown: small tags and cut ends)
chain: LPAVPPQQWALSAGNGSSEVEVVPFQEVWGRSYCRALERLVDVVSEYPSEVEHMFSPSCVSLLRCTGCCGDENLHCVPVETANVTMQLLKIRSGDRPSYVELTFSQHVRCECRPLREKMKPERCGDAVPRR
The molecule B1 had a reduction of sFlt-1 in a single passage in experiment [3] of 46.2%.

B2: monomeric wildtype VEGF^165 (moVEGF^165) (ligand, human, UniProt P15692-4 27-191, looked up)
chain: APMAEGGGQNHHEVVKFMDVYQRSYCHPIETLVDIFQEYPDEIEYIFKPSCVPLMRCGGCCNDEGLECVPTEESNITMQIMRIKPHQGQHIGEMSFLQHNKCECRPKKDRARQENPCGPCSERRKHLFVQDPQTCKCSCKNTDSRCKARQLELNERTCRCDKPRR
notes: mature; Expressed from a monomeric construct in HEK293T cells; not shown: N-terminal Strep tag from the expression vector
B2 had a reduction of sFlt-1 in a single passage in experiment [3] of 77.2%. For the same molecule, in experiment [5], the “fold higher affinity compared to moPIGF” value came to 2.6 fold.
